# Reference: the supplement of paper PMC12042874
# ± gives the uncertainty stated by the source.
# Experiment: amyloid nucleation score (Sup35N fusion, yeast selection) (log enrichment); library NNK3; higher = more nucleation; inactive = no reads after selection
# How it was run: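 The nucleation score is the DiMSum log enrichment of output over input reads, centred on the mode score of non-aggregating sequences. Only sequences with 100 or more input reads were scored, using Illumina sequencing of input and output plasmid inserts. Psi-negative yeast expressing Sup35N fused to peptides of 20 random codons were induced 24 hours with 100 μM copper sulfate and grown 7 days at 30°C on medium lacking adenine and uracil.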
row,Substance,amyloid nucleation score
1,DLVYHIEDMFGSMR,0.547 ± 0.22
2,FWHILLEVRLAVWSQMRDMG,inactive
3,HLSSNVLNYVLNFHWFCNFG,0.836 ± 0.16
4,WKLASVFAVSMR,inactive
5,PLPPPRKAMASLFVFLAWMA,inactive
6,ISNSYH,inactive
7,SGGYLYRSSLSTVNSEDAMV,inactive
8,EHLQRGSHLFSFSRSEI,inactive
9,VFVQTLILWVHSRIAALQDS,inactive
10,FHMFMTYTWYPVI,inactive
11,GCNDSSARLS,inactive
12,RRLTGFMQVVRKNWVLGELA,1.04 ± 0.21
13,LRWLDVLDHTLDIYVSNESI,inactive
14,YLRGY,inactive
15,HPCFLW,inactive
16,LCCAPNADFWIN,inactive
17,FFCMWDRMIALWSHFCNLDG,inactive
18,SLVSYRLWIYDLWMTWL,inactive
19,YEKPCEG,inactive
20,NMYVNTSCIVYFE,3 ± 0.058
21,VNCATWNLNFTRMFMACIGL,1.28 ± 0.12
22,SSFGTQLYWNMSKCRFTRGT,1.16 ± 0.16
23,SYMQAWVTNCMSVFSVVMKQ,inactive

row,Substance,amyloid nucleation score
1,YQIDQSLCNWCYLGGSWFIA,2.39 ± 0.072
2,ILPLMEFGEPKFESSVYSS,inactive
3,YIEWLDFR,inactive
4,RLVAVVRCYVLCGKIWGKST,-0.484 ± 0.89
5,ALYTCMNLSYPLHSEFVTPR,inactive
6,MPSLRRS,inactive
7,YIVNLGKFKCQNLMRSCRLK,1.07 ± 0.12
8,RWFRLSWLEISKYA,inactive
9,TSMSGDVHVVYVVVEHVKPP,2.46 ± 0.089
10,MSIVIYARLTWNYDSVFSFG,inactive
11,GSATSFAFFIVFLSD,1.51 ± 0.096
12,FYCGFAMGFILCCQNYTFVT,2.63 ± 0.076
13,DGMFSFGSLCRYAELETSGK,inactive
14,DISHKLNTTIVMYFREALRG,inactive
15,DFFAHVNAIG,inactive
16,HFFNPCQGHRNKVPRRAS,inactive
17,SDRSA,inactive
18,IRYRRHVNVEFKMYNWSCWC,-0.554 ± 0.63
19,LFRHLVNRLNLTSTAKYHGF,inactive
20,WVRRYV,inactive
21,LFLKFDNSSWLMLKVMDTNI,0.961 ± 0.19
22,YNNCYRCEN,inactive
23,EIMYVLTIFSNVFVMFFS,-0.436 ± 0.44

row,Substance,amyloid nucleation score
1,PLTFRTMVFKALVEAWRKFN,inactive
2,CVNLYVELKFNHFDFVS,2.04 ± 0.09
3,PQPARLDQGGYISDMYCYVI,-0.362 ± 1.3
4,DMLFDQGLSCNGLI,inactive
5,AYVRLKRCWDTFWLRI,inactive
6,AELSIADPTEMSGRVFACNV,inactive
7,LKADRVVSFFWLCSFIFTSI,inactive
8,SWRDILVKRHS,inactive
9,LFYIWQSFQFRN,inactive
10,TCHLILRVFGSYNMHGS,-0.024 ± 0.96
11,HVSGVIYVVGNN,inactive
12,TRMSGRHLCVITACLLTLNC,0.576 ± 0.15
13,RMFLHLTRNKCVRVKKASQE,inactive
14,YTMVWFLSSYSNY,inactive
15,CSGYARTLS,inactive
16,FDFARWKDMKRESFLFLDVR,inactive
17,YAATRW,inactive
18,LVWHLHSSSCRARCRIGGGK,inactive
19,LYMRLIGIRRAMHIYPPLKS,inactive
20,DGRAWRALRGPK,inactive
21,MKVLYDKVKSVTASIELWFW,inactive
22,DRVFLQPTCYITAGYGFRVM,inactive
23,APLEFLSSLDWIRPELALTF,inactive

row,Substance,amyloid nucleation score
1,VSFYIVKSLEEAGVSR,1.36 ± 0.15
2,LFSSVC,inactive
3,TICCSDLVVEDHG,inactive
4,MSFSPQKVVAHFCYWSCMRS,inactive
5,VLGPLQLRRIAHETGRCNAM,inactive
6,FNLLHTRMTLLYSNIRNRYN,0.358 ± 0.62
7,LQVSIRLTLTNHVDRHTMPM,1.36 ± 0.15
8,CAKLLYGCDTSFREWMVGAE,inactive
9,IRVRTYSTKLPSLGH,inactive
10,LGEWYWYYFFRARR,inactive
11,SGMKWYLRLYV,inactive
12,MSIYLQSTM,inactive
13,VYTRSGHV,-0.112 ± 1.3
14,VWIRRTCDFNQYRESDLLIR,inactive
15,VWRAWAINGTATWCLIGDHG,inactive
16,LSNVVGRATGKRTTSYHEDA,0.43 ± 0.17
17,GIIHDVMDTTNGKIVSS,inactive
18,YGCRINLIDRYALKYCVTED,inactive
19,RWFDTFLCLSR,inactive
20,FPSSMGRQYIGVCKYLSDPP,inactive
21,SVLFLTRIEEVGVRYMFKDC,inactive
22,IWTLVVCFLDVRRRR,-0.05 ± 0.53
23,LTVLSCTAQVDHGIAYCLEV,inactive

row,Substance,amyloid nucleation score
1,GVRVS,inactive
2,IIRVRQTLSVRFIYIF,inactive
3,FLGFDRVFYGRRISPSFVRT,inactive
4,LGSMAINCNERCITWCHRFI,0.668 ± 0.25
5,CMRLLTWIKPNWLLLVCLKT,inactive
6,DCKLVDIDSLLVTFDR,inactive
7,DDFSVPTDLIDVRRVS,-0.047 ± 1
8,GSSRCNGRLWSAG,inactive
9,EGHGGTRLSHRA,inactive
10,LLLSEREGIYVVWVWCRWPV,inactive
11,NQEQWWLATAYPNVSWSIKL,inactive
12,TNNINALMLAIPINEYVVGH,inactive
13,FPRNVPG,inactive
14,PQCESLMYCGD,inactive
15,IIGKRTSMVAITLFDINGSS,inactive
16,QLFVRVIWDMP,0.186 ± 0.45
17,LLVCSWC,2.1 ± 0.093
18,AWVDWKWRNGRSLAS,inactive
19,VEQLTEDKRWRSACKQRRKV,inactive
20,FHSGMHCMKDFDCLPGFVGR,inactive
21,YHCVRLFRVPMTISRGDAQK,-0.271 ± 0.59
22,NEICEHTSVVLLR,inactive
23,FRSFIGKNHEKRSVILCILE,inactive

row,Substance,amyloid nucleation score
1,KGETDFVLKP,-0.432 ± 0.87
2,SRCPRMGYQHALRRWLLPVW,inactive
3,PQHADVAFVT,inactive
4,NSMHAATWLEARRRLDKEGF,-0.753 ± 1.3
5,YRHICKYCFGQPVGHH,-1.1 ± 1.9
6,YDDVFFYSWVTFLRQLFDPL,inactive
7,RNMLVAPDSCMASRWYGVHL,inactive
8,RWYAVLYHLV,inactive
9,MGTVVTMSMRLSNSVWGVGH,1.28 ± 0.14
10,INRDYSVIVSGSYHHSSLTE,inactive
11,SGSVNIHSWCGFNSWT,inactive
12,EDLVLRIDSTAACAELEKWL,inactive
13,SERPDFMDYEEMLGYAVKWR,inactive
14,YLNSDRSYEMDTFRFGYLLY,inactive
15,NKCSVMCHLDGVTWVPERAV,inactive
16,FQKGLRQDYQVFLFDSNRFW,inactive
17,RTLAIRYSSNPLTIRLLQSL,inactive
18,LCTLSCFAICD,0.74 ± 0.18
19,PDINM,inactive
20,MYTMSHSGLVLALFDAGSWR,inactive
21,WKDWKLRPNY,inactive
22,SACEMWATRHKNWRASGYNH,inactive
23,NSLFSNCARLYGNRGTLGLS,inactive

row,Substance,amyloid nucleation score
1,PWDSLW,0.894 ± 0.12
2,FCENRFTSFLKNVIIW,0.398 ± 0.18
3,QNVFWIVSGTSEWGSALVFG,inactive
4,STHGWGGWLSVYIGNP,inactive
5,CRYQCRQLKVIVCSGDWNLV,inactive
6,LFVYHCYIFSMRSRCMSHLY,inactive
7,NMKSCFHRMDPHWGTGFHSL,inactive
8,KGQYLSIGYNNFRG,-0.764 ± 1.8
9,FGVVH,inactive
10,PKMSPSAMRSCDDLASPFIS,inactive
11,SYTIVERAIRWYPPT,0.966 ± 0.11
12,ISDPRLGKVPLWDMSSIVYV,inactive
13,SDLTMIRVPIFITLRPPHSS,inactive
14,YSMDTPCFINSGVFSADPNL,inactive
15,TNRFIFPFLNVTHAVLFIFT,1.02 ± 0.19
16,THNVSKKWLVGVMCINSGRH,1.59 ± 0.099
17,DAFYIFWLDTSWFRWYAGTS,-0.131 ± 0.61
18,STLQRDIICKCIHAKVTVWV,inactive
19,SKCDMCTYTQRFNDL,inactive
20,RHGEIYAHYKMFVCRLDEVR,inactive
21,SKESISLECIHRVWFCGTGL,0.185 ± 0.38
22,CLNGSCAMLSGLVCLLCNRQ,2.38 ± 0.058
23,TYFILKETATDLN,inactive
